PMC11156954, “Inhibition and transport mechanisms of the ABC transporter hMRP5” (Nature Communications, 2024)

Columns and labels:
hMRP5-Δ1-94-8xHis = target: T1, hMRP5-Δ1-94-8xHis (human, UniProt O15440 95-1437, RED-tris-NTA 2nd Generation dye on the His tag); experiment: MST; digitonin-purified hMRP5-Δ1-94-8xHis labelled with RED-tris-NTA 2nd Generation dye; serially diluted peptides; 15 min at room temperature; HEPES buffer; 3% LED/excitation power, medium MST power (Monolith NT); conditions: both partners purified
T1 construct: human multidrug resistance protein 5 (MRP5, ABCC5), UniProt O15440, without the flexible N-terminal region Met1-Thr94; Plasmids and primers are in Supplementary Data 1 and 2; source: HEK293F, transfected; digitonin-purified (HEPES buffer instead of Tris)

hMRP5-Δ1-94 = target: T2, hMRP5-Δ1-94 (human, UniProt O15440 95-1437); experiment: cryo-EM structure; peptide M5PI and hMRP5-Δ1-94 incubated on ice at a ratio of 2:1 for 1 h before vitrification; digitonin; conditions: both partners purified
T2 construct: human multidrug resistance protein 5 (MRP5, ABCC5), UniProt O15440, without the flexible N-terminal region Met1-Thr94; This is the construct used for cryo-EM; Plasmids and primers are in Supplementary Data 1 and 2; also called hMRP5-Δ1-94 truncation mutant; apo form; source: HEK293F, transfected, purified (strep-Tactin, SEC on Superose 6 Increase, digitonin)
T2 sequence (O15440 95-1437, stated change not applied): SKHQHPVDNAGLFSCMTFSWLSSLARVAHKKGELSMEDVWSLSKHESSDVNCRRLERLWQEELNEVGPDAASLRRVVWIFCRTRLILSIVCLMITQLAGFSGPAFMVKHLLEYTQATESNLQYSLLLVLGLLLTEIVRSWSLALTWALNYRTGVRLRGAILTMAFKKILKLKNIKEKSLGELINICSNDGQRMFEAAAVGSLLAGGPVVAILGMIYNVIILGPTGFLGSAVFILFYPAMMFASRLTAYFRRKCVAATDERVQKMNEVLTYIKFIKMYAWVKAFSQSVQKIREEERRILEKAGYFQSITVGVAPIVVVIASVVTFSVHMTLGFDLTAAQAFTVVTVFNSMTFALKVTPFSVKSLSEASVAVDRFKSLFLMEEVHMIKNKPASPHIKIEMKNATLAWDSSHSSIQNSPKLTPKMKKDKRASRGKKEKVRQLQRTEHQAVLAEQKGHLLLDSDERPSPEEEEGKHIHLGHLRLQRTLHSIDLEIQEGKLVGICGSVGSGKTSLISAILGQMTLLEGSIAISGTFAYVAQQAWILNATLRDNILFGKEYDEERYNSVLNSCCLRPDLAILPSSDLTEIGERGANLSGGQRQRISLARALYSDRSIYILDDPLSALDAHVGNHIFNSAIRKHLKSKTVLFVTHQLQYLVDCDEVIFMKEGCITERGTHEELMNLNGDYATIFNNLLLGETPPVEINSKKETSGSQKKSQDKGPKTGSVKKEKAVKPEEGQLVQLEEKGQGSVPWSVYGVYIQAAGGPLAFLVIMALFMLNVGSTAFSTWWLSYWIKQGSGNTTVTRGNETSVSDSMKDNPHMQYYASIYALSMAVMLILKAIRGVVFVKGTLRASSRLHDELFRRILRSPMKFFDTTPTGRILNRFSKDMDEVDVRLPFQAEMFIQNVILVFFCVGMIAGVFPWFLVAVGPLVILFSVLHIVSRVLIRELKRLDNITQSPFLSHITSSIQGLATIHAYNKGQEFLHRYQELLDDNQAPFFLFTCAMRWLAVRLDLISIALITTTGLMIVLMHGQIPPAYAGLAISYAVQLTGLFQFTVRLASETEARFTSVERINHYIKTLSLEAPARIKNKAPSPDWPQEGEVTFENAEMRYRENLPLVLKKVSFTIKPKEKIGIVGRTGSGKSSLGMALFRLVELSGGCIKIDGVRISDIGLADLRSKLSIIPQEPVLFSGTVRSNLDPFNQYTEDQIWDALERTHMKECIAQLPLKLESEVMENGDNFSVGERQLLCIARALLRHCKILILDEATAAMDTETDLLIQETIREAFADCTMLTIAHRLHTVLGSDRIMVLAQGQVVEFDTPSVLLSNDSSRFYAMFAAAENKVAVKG

T1 sequence (O15440 95-1437, stated change not applied): as above

B1: MRP5 potential peptide inhibitor (M5PI) (peptide, UniProt O15440 35-75, looked up)
peptide: CSKFRRTRPLECQDALETAARAEGLSLDASMHSQLRILDEC
notes: stretch 35-75 of the N-terminal loop of human MRP5 (UniProt O15440) with both terminal residues replaced by cysteine; The cysteines were meant for cyclisation; also called D35C-E75C; Asp35Cys-Glu75Cys; source: synthetic peptide (GL Biochem, Shanghai)
- binding result (hMRP5-Δ1-94-8xHis): binds
- binding result (hMRP5-Δ1-94): binds
